# Assay results reported in paper PMC12150503 (Cell Communication and Signaling : CCS, 2025).
# Changes are numbered by the printed parent chain. Numbers in names are those of the source.
# T1: His-mouse IKKβ (purified) (mouse, UniProt O88351 1-757)
# T1 sequence (looked up): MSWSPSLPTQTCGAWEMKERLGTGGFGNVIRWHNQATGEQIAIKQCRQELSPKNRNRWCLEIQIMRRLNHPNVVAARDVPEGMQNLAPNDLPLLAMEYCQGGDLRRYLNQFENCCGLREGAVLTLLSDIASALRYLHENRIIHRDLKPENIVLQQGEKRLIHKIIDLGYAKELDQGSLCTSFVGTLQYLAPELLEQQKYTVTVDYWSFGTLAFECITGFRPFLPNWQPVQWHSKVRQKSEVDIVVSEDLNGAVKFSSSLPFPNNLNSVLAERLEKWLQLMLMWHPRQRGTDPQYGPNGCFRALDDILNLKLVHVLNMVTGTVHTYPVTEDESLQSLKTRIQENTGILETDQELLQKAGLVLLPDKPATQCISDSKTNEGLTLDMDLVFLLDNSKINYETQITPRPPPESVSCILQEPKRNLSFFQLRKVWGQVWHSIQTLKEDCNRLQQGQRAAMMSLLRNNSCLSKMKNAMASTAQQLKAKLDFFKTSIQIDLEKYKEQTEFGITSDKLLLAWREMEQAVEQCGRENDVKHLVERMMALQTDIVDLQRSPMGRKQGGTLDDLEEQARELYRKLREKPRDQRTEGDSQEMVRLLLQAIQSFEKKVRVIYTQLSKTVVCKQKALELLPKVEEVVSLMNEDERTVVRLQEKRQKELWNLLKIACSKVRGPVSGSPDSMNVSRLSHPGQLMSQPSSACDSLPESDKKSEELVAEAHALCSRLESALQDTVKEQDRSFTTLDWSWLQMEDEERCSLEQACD
# B1: GST-mouse RMP-WT (natural protein, UniProt Q3TLD5 1-531, looked up)
# chain: MEPPSEPEPEPQPLAEASAAAPLRAPEVARLREEQEKVVTNCQEKIQHWEKVDNDYSALQERLRTLPDKLSYDVMVPFGPLAFMPGKLVHTNEVTVLLGDNWFAKCSAKQAVGLVEHRKEHVRKTIDDFKKVLKNFESRVEFTEDLQKMSDAAGDFVDIREEIKSDFEFKGKQRIAHKPHSKPKTSDIFEADFENGVKPKNTFDADELWARLEELERQEELLGELESKPDTVIANGEDRVSSEEEKEGADTGVNVVSPVTDSSAASSCKRRAGNAGLPNGQVNSLNYSVNGSNSYHSNKDDDEEEEDDDDDDDEDDDNESDHAISADNSIPTIYFSHTVEPKRVRINTGKNTTLKFSEKKEEAKRKRKSGAGSHATHELPAIKSPADIYRVFVDVVNGEYVPRKSILKSRSRENSVCSDTSESSAADVEDRRGLLRSTSSEEAVATEAGGSSLDELQENHPKKPLPSGVSEAFSGTVIEKEFLSPSLAPYSAIAHHALPTIPERKEVPSEVSEEPTKRVSKFRAARLQQRS
# B2: GST-mouse RMP-S439A (natural protein, UniProt Q3TLD5 1-531, looked up)
# chain: B1 chain with S439A
# Molecular target: T1, His-mouse IKKβ (purified)
# Experiment: pull-down
row,Binder,binding result
1,B1,binds
2,B2,binds
